The values that follow come from patent US20220064276A1 (SCHOLAR ROCK, published 2022).

Where two headings read alike, the source gives them in different places.

Test [1] has as its target T1, mouse LTBP1-proTGFβ1 complex (mouse, UniProt Q8CG19 339-1712; P04202 30-390). Nature of the test: cell-based or functional assay.
Test [2] concerns the target T2, LTBP-proTGFβ1: transfected human proTGFβ1 presented by endogenous LTBP1/3 of LN229 cells (human). The test can be described thus: cell-based or functional assay.
For test [3], the target named is T1, mouse LTBP1-proTGFβ1 complex. Nature of the test: Octet BLI, IgG captured. How it is done:
(§1) Binding affinities of the optimized antibodies were measured by Octet against human LTBP1-proTGFβ1, human LTBP3-proTGFβ1, mouse LTBP1-proTGFβ1, mouse LTBP3-proTGFβ1, and GARP-proTGFβ1 complexes, essentially as described in Example 6. […] The antigens were allowed to associate for 3 minutes followed by a 5-minute dissociation. Kinetics buffer (ForteBio®) was used throughout the experiment, and KD was determined using a 1:1 fitting model for each antibody antigen pair.
A general note: In BLI a coated tip is dipped into the sample, and binding shifts an interference pattern.

Test [4] deals with T3, mouse LTBP3-proTGFβ1 complex (mouse, UniProt Q61810 41-1245; P04202 30-390, limits assumed).
T3 construct: Exemplary entries; also called Mo LTBP3-proTGFβ1; Murine LTBP3 proTGFb1
The test can be described thus: Octet BLI, IgG captured. How it is done: as §1

For test [5], the target named is T4, human LTBP3-proTGFβ1 complex (human, UniProt Q9NS15 44-1303; P01137 30-390, limits assumed).
T4 construct: Exemplary entries; also called Hu LTBP3-proTGFβ1; huLTBP3 proTGFb1
T4 sequence (Q9NS15 44-1303 limits assumed, chain 1 of 2): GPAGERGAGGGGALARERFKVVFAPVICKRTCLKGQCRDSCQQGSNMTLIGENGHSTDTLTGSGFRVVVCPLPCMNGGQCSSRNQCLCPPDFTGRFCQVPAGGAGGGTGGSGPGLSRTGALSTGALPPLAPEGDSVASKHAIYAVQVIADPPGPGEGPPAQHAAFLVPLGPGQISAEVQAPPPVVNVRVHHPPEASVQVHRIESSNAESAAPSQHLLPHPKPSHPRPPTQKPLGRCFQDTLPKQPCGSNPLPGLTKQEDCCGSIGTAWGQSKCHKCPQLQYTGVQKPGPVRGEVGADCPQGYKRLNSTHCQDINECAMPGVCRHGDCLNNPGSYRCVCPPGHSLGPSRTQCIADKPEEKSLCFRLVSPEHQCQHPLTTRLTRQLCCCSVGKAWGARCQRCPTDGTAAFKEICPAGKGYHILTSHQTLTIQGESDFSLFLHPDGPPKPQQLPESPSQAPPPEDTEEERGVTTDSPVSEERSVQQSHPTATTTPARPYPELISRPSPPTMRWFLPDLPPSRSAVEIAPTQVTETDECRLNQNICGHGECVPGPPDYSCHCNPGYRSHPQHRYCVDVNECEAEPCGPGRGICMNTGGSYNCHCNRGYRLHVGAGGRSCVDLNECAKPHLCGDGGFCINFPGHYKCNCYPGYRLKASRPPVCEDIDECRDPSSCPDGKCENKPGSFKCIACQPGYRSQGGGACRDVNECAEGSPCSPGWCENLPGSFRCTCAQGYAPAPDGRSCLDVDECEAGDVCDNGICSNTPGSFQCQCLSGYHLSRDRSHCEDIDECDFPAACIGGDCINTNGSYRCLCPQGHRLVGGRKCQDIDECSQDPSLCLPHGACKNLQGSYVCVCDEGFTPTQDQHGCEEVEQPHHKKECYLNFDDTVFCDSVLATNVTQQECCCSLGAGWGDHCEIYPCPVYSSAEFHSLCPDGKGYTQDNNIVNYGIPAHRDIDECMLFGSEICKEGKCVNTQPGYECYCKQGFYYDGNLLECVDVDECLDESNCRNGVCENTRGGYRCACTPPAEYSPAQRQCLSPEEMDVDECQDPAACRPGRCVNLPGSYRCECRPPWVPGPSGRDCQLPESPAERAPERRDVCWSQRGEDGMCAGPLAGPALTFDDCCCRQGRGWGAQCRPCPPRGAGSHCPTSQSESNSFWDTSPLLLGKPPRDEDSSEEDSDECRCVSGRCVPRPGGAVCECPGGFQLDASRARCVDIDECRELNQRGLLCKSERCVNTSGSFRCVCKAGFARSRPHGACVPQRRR
T4 sequence (P01137 30-390 limits assumed, chain 2 of 2): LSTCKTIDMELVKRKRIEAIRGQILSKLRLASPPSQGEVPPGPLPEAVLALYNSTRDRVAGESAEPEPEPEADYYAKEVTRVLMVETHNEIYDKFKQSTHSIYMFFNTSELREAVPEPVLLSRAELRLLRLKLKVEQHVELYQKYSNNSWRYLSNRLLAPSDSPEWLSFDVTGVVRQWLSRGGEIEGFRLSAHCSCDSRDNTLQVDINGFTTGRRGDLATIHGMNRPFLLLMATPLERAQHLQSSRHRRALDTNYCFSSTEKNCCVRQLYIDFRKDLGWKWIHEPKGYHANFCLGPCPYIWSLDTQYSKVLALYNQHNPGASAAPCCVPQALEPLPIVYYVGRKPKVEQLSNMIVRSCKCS
Nature of the test: Octet BLI, IgG captured. How it is done: as §1

Test [6] addresses T5, human LTBP1-proTGFβ1 complex (human, UniProt Q14766 347-1721; P01137 30-390).
T5 construct: Large latent complex: one presenting molecule disulfide-linked to a proTGFβ1 dimer; also called Hu LTBP1-proTGFβ1; huLTBP1 proTGFβ1
Nature of the test: Octet BLI, IgG captured. How it is done: as §1

The target of test [7] is T6, human GARP-proTGFβ1 complex (human, UniProt Q14392 18-627; P01137 30-390, limits assumed).
T6 construct: Exemplary entries; also called Hu GARP-proTGFβ1; huGARP proTGFb1
Nature of the test: Octet (bio-layer interferometry), response at 200 nM antigen; 0.1 nm cutoff designates meaningful binding. How it is done: This experiment was performed at 200, 100, 50, and 25 nM human GARP proTGFb1 and human LTBP1 proTGFbl. […] Surface plasmon resonance (SPR)-based assays

Test [8] deals with T1, mouse LTBP1-proTGFβ1 complex. Nature of the test: cell-based or functional assay. This is another data set of the same source.
Test [9] addresses T2, LTBP-proTGFβ1: transfected human …. Nature of the test: cell-based or functional assay. The source holds these as a separate data set.
The target of test [10] is T5, human LTBP1-proTGFβ1 complex. Nature of the test: SPR Biacore 8K, Fab over captured antigen. How it is done: A Biacore 8K system was employed to determine the monovalent binding affinity and the kinetic parameters for antigen binding of test antibodies. Association and dissociation kinetics of Fab fragments SR-AB42-HuFab, SR-AB63-HuFab and SR-AB43-HuFab to antigen complexes were measured, and resulting ka, kd and KD are provided below. Briefly, the binding kinetics were evaluated by surface plasmon resonance using Biacore 8K (GE Healthcare). Biotinylated capture antigens were immobilized to the chip (10 nM, ˜200 RU loading). A Biotin CAPture sensor chip was used to capture the biotinylated antigens. […] 0 nM was used as a reference. […] 0 nM was used as a reference. Multi-cycle kinetics was employed where each analyte concentration was injected in a separate cycle and the sensor chip surface was regenerated after each cycle. A11 the assays were carried out in freshly prepared 1× HBS-EP+ buffer (10 mM HEPES, 150 mM NaCl, 3 mM EDTA, 0.05% Tween20, pH 7.4). Data were fit globally to a 1:1 binding model to obtain the kinetic parameters. The sensorgram for 0 nM analyte concentration was used as reference.
Background: In SPR one partner is held on a chip, and binding of the other changes the refractive index at the surface.

Test [11] deals with T7, mouse GARP-proTGFβ1 complex (mouse, UniProt G3XA59 18-628; P04202 30-390, limits assumed).
T7 construct: Exemplary entries; also called MuGARP-ProTGFb1; Mu GARP-ProTGFβ1
The test can be described thus: SPR Biacore 8K, Fab over captured antigen, Rmax fixed. How it is done: (§2) These experiments were performed using the Biacore 8K using the method “multi-cycle kinetics/affinity using Biotin CAPture kit.”
(§3) Data collection rate was set to 10 Hz and the Biotin CAPture step was performed for 300 seconds with a flow rate of 2 μL/minute. The Biotin CAPture reagent was used after a 1:5 dilution in 1× Biacore running buffer. Biotinylated ligands (the various complexes of TGFβ1) were utilized at a concentration of 10 nM and were immobilized to the sensor chip for 180 seconds with a flow rate of 10 μL/minute. […] Analyte contact time was 120 seconds and the dissociation time was 900 seconds. The regeneration cycle utilized was 120 seconds with a flow rate of 10 μL/minute.
(§4) The evaluation method used was “multi-cycle affinity using capture” and a 1:1 binding model was used. […] Global fits were utilized for every KD determination.

Test [12] deals with T1, mouse LTBP1-proTGFβ1 complex. The test is described as above. How it is done:
as §2, §3, §4

In test [13] the target is T8, mouse LRRC33-proTGFβ1 complex (mouse, UniProt Q8BMT4 20-651, limits assumed).
T8 construct: also called MuLRRC33-ProTGFb1; Mu LRRC33-ProTGFβ1
The test is described as above. How it is done:
as §2, §3, §4

Test [14] concerns the target T9, human LRRC33-proTGFβ1 complex (human, UniProt Q86YC3 19-650; P01137 30-390, limits assumed).
T9 construct: Exemplary entries; also called huLRRC33 proTGFb1; HuLRRC33-ProTGFb1
The description is as above. How it is done: as §2, §3, §4

Test [15] has as its target T6, human GARP-proTGFβ1 complex. The description is as above. How it is done:
as §2, §3, §4

For test [16], the target named is T3, mouse LTBP3-proTGFβ1 complex. The test is described as above. How it is done: as §2, §3, §4
Test [17] has as its target T4, human LTBP3-proTGFβ1 complex. The test is described as above. How it is done:
as §2, §3, §4

In test [18] the target is T5, human LTBP1-proTGFβ1 complex. The description is as above. How it is done: as §2, §3, §4

T1 sequence (Q8CG19 339-1712 limits assumed, chain 1 of 2): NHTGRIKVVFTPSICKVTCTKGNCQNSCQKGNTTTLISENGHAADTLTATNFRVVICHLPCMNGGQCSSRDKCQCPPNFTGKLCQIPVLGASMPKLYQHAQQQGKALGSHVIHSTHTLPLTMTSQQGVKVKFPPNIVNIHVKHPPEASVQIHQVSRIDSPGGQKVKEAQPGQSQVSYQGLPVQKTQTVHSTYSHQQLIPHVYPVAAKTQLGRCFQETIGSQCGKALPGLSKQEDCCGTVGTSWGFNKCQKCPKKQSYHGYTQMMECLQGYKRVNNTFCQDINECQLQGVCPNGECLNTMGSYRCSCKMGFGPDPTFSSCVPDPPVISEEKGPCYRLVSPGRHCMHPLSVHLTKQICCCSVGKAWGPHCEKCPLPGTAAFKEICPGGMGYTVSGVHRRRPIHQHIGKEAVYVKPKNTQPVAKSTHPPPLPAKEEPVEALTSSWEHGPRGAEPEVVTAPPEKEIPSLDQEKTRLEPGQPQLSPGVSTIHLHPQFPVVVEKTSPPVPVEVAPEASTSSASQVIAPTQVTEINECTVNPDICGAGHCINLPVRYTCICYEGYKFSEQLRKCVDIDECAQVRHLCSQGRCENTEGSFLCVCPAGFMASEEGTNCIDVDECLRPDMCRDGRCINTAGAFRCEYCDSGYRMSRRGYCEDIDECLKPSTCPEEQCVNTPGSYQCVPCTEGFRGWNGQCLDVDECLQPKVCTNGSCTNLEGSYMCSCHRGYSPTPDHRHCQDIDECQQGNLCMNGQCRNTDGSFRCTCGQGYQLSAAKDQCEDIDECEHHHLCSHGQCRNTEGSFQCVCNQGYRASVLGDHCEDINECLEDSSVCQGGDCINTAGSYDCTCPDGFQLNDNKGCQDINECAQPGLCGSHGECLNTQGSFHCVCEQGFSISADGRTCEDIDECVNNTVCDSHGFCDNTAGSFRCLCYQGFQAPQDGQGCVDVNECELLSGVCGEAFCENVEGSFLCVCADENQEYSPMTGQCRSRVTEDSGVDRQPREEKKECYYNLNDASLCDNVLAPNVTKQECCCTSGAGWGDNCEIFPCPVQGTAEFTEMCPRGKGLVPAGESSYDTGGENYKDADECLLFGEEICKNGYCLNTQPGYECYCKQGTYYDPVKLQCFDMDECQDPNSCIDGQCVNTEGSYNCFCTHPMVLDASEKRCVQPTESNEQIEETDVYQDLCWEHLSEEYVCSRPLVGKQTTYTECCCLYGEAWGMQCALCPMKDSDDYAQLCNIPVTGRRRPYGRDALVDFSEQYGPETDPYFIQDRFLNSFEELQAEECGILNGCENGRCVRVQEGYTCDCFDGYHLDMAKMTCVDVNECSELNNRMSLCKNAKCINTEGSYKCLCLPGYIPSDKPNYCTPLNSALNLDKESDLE
T1 sequence (P04202 30-390 limits assumed, chain 2 of 2): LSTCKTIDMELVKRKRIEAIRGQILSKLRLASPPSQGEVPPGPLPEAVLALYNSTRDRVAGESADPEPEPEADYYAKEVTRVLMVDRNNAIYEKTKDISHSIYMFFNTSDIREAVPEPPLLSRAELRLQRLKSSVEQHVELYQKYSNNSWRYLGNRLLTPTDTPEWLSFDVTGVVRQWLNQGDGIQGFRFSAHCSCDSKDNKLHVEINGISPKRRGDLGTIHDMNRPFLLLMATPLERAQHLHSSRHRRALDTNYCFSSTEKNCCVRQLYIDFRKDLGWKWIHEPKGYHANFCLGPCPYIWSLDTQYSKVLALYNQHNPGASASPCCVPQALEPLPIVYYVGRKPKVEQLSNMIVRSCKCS
T5 sequence (Q14766 347-1721 limits assumed, chain 1 of 2): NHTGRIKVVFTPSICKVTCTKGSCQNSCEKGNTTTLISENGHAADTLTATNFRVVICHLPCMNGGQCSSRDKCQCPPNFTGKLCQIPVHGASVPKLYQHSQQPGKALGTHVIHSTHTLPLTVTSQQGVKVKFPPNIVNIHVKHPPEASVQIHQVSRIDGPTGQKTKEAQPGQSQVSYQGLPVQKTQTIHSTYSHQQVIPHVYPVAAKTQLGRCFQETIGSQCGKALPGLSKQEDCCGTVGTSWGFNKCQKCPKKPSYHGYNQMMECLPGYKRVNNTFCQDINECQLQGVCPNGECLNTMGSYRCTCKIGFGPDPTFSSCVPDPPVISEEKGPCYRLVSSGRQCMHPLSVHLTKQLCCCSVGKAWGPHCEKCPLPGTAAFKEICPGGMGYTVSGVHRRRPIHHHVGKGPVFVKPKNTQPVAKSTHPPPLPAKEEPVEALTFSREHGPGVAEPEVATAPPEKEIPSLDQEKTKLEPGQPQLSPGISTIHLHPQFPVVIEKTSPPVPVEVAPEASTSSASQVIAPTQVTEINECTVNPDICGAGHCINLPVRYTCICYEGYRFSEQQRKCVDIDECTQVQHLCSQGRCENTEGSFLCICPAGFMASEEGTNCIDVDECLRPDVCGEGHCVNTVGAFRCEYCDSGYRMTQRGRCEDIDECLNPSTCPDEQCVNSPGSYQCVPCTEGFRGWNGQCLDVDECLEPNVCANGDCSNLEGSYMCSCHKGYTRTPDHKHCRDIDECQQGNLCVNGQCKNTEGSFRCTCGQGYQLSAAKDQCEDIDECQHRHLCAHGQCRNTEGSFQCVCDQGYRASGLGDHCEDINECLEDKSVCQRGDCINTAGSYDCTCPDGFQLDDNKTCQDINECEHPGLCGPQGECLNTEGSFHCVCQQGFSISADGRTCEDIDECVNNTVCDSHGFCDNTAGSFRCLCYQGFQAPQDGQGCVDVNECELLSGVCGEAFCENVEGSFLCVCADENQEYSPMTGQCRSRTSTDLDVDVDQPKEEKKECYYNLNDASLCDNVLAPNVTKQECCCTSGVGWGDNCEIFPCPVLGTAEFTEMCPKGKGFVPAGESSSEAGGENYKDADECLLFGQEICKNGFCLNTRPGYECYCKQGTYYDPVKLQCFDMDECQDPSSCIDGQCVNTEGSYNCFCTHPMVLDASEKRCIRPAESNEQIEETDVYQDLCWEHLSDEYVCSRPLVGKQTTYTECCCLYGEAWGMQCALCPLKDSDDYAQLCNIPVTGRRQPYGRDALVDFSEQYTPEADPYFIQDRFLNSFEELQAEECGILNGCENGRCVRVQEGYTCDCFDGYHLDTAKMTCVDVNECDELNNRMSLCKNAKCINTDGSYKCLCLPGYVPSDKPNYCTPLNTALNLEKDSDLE
T5 sequence (P01137 30-390 limits assumed, chain 2 of 2): as the sequence (P01137 30-390 limits assumed, chain 2 of 2) above
T2 sequence (P01137 30-390): as the sequence (P01137 30-390 limits assumed, chain 2 of 2) above

B1: SR-AB63 (antibody, IgG1, V domains shown)
VH: QLQLQESGPGLVKPSETLSLTCTVSGGSIRSSSYYWGWIRQPPGKGLEWIGSISYSATTYYNPSLKSRVTISVDTSKNQFSLKLSSVTAADTAVYYCAGDPSYDSIAGMQVWGQGTTVTVSS
VL: DIQLTQSPSSLSASVGDRVTITCRASQSISSYLNWYQQKPGKAPKLLIYAASNLQSGVPSRFSGSGSGTDFTLTISSLQPEDFATYYCQQSFDWPLTFGGGTKVEIK
notes: Cycle 3, lineage SR-AB26
A word on the Kd: it is the constant that tells how readily two partners part at equilibrium. Broadly, the koff is a measure of how fast the partners let go of each other. What is called kon is the rate constant with which the complex forms. Read a high kon as fast association. On to B1, for which the “IC50, mLTBP1 assay (CAGA12 luciferase)” value in [1] stood at 208 pM. Also, in test [2], the “IC50, endogenous hLTBP assay (CAGA12 luciferase)” value (“IC50, endogenous hLTBP assay” for short) came out at 1780 pM. For the same molecule, the Kd was 1090 pM in test [3], 2000 pM in test [4], 494 pM in test [5] and 611 pM in test [6]. In addition, the figures for the off-rate constant (koff) in test [5] and in test [6] were 7.84e-05 s⁻¹ and 7.24e-05 s⁻¹, respectively. Also, the kon was found to be 159000 M⁻¹ s⁻¹ in test [5] and 118000 M⁻¹ s⁻¹ in test [6].

B2: SR-AB64 (antibody, IgG1, V domains shown)
VH: QLQLQESGPGLVKPSETLSLTCTVSGGSIRSSSYYWGWIRQPPGKGLEWIGSISYSATTYYNPSLKSRVTISVDTSKNQFSLKLSSVTAADTAVYYCAGDPSYDSIAGMQVWGQGTTVTVSS
VL: DIQMTQSPSSLSASVGDRVTITCRASQSISYYLNWYQQKPGKAPKLLIYSASSRQSGVPSRFSGSGSGTDFTLTISSLQPEDFATYYCQQGFDFPLTFGGGTKVEIK
notes: Cycle 3, lineage SR-AB26
On to B2, for which the binding result in [7] is listed as “no binding (tested: 200 nM)”. Further, in test [1], the “IC50, mLTBP1 assay (CAGA12 luciferase)” value is 268 pM. Further, the “IC50, endogenous hLTBP assay” value in [2] was found to be 3120 pM. Besides, the equilibrium dissociation constant (Kd) in test [3] is 1030 pM; in [4], 2850 pM; in test [5], 471 pM; in test [6], 467 pM. Moreover, the off-rate (koff) in test [5] amounted to 9.18e-05 s⁻¹. This molecule showed a kon in [5] of 195000 M⁻¹ s⁻¹.

B3: SR-AB40 (antibody, IgG1, V domains shown)
VH: QVQLVESGGGVVQPGRSLRLSCAASGFTFRSYVMHWVRQAPGKGLEWVAVISHEGSLKYYADSVKGRFTISRDNSKNTLYLQMNSLRAEDTAVYYCARPRIAARRGGFGYWGQGTLVTVSS
VL: NFMLTQPHSVSESPGKTVTISCTRSSGNIDNNYVQWYQQRPGSSPTTVIYEDNQRPSGVPDRFSGSIDSSSNSASLTISGLKTEDEADYYCQSYDYSNQGVVFGGGTKLTVL
notes: Cycle 3, lineage SR-AB23
In the case of B3, in [8], the “IC50, mLTBP1 assay (CAGA12 luciferase)” value came out at 333 pM. The “IC50, endogenous hLTBP assay” value in [9] was 2100 pM. The binding result in [7] was “no binding (tested: 200 nM)”. In addition, the Kd in test [3] turned out to be 1080 pM; in test [4], 1160 pM; in [5], 333 pM; in test [6], 401 pM. The koff in [5] was 6.07e-05 s⁻¹; in [6], 6e-05 s⁻¹. For the same molecule, the kon in test [5] was determined as 182000 M⁻¹ s⁻¹; in test [6], 150000 M⁻¹ s⁻¹.

B4: SR-AB47-HuFab (Fab, V domains shown)
VH: QVQLVESGGGVVQPGRSLRLSCAASGFTFRSYVMHWVRQAPGKGLEWVAVISHEGSGKYYADSVKGRFTISRDNSKNTLYLQMNSLRAEDTAVYYCARPRIAARRGGFGSWGQGTLVTVSS
VL: NFMLTQPHSVSESPGKTVTISCTRSSGNIDYNYVQWYQQRPGSSPTTVIYEDNVRPSGVPDRFSGSIDSSSNSASLTISGLKTEDEADYYCQSYDYDNQAVVFGGGTKLTVL
notes: Human Fab; also called SR-AB47 Fab
Regarding B4, the Kd in [10] is 74 pM; in [11] it was 1950 pM; in [12] it was 198 pM; in test [13] it was 9160 pM; in test [14], 6660 pM; in test [15] it was 6500 pM. Also, the equilibrium dissociation constant (Kd) in [16] stood at 400 pM; in [17], 330 pM; in test [18], 217 pM. In test [10], the off-rate (koff) was found to be 0.000136 s⁻¹. Further, the kon in test [10] came out at 1.84e+06 M⁻¹ s⁻¹.

B5: SR-AB49-HuFab (Fab, V domains shown)
VH: QVQLVESGGGVVQPGRSLRLSCAASGFTFRSYVMHWVRQAPGKGLEWVAVISHEGSGKYYADSVKGRFTISRDNSKNTLYLQMNSLRAEDTAVYYCARPRIAARRGGFGSWGQGTLVTVSS
VL: NFMLTQPHSVSESPGKTVTISCTRSSGNIDYNYVQWYQQRPGSSPTTVIYEDNVRPSGVPDRFSGSIDSSSNSASLTISGLKTEDEADYYCQGYDWDTQGVVFGGGTKLTVL
notes: Human Fab; also called SR-AB49 Fab
On to B5, for which the Kd came out at 170 pM in test [10]; 2820 pM in [11]; 379 pM in [12]; 6940 pM in [13]; 7700 pM in test [14]; 6550 pM in test [15]. Moreover, the dissociation constant (Kd) in [16] came out at 650 pM; in test [17], 580 pM; in [18] it was 319 pM. The off-rate (koff) in test [10] worked out at 0.000138 s⁻¹. Moreover, the association rate constant (kon) in [10] was determined as 809000 M⁻¹ s⁻¹.
